Legend:
[1] = system: S. aureus cells; test: Lytic assay using purified protein (SYTOX kinetic assay); assay type: cell-based, Staphylococcus aureus
Procedure: S. aureus cells were grown either to mid-log or to saturation in tryptic soy broth (TSB) at 37° C. with shaking. The cells were harvested by centrifugation and washed once in phosphate buffered saline (PBS: 2.7 mM KCl, 1.5 mM KH2PO4, 8.9 mM Na2HPO4, 136.9 mM NaCl, pH 7.4). The assay was performed in 96-well, black, clear bottom plates from Greiner Bio-One (Monroe, N.C.). The final (250 μl) reaction was composed of 10 μl of P. pastoris culture supernatant, S. aureus cells at OD600=1.5, and 5 μM SYTOX Green (Thermo Fisher Scientific; Waltham, Mass.), all in PBS. Data were collected using SPECTRAMAX GEMINI Fluorescence Microplate Reader (Molecular Devices; Sunnyvale, Calif.) using an excitation/emission of 504/523 nm, and rates were determined from the slope of the steepest linear portion of the trace. Each assay was performed with 500 ng of commercially-sourced lysostaphin (ssLys) as an internal control.
The activity of purified lysostaphin variants was examined using the SYTOX kinetic assay as previously described in Chapter 2, Section 3.2.6. 200 ng of purified enzyme (instead of culture supernatant) was used in each reaction.

[2] = system: MRSA strain 3425-3; test: MIC assay; assay type: cell-based, Staphylococcus aureus; settings: biological duplicates
Procedure: (§1) The MICs of wild-type lysostaphin and its variants were determined by adding 2-fold serial dilutions of enzymes into wells of a polypropylene 96-well plate (Costar 3879) containing ˜40,000 S. aureus SA113 (or S. aureus 6445, 3425-1, 3425-3) cells in Muller Hinton broth (BD) supplemented with 2% NaCl and 0.1% bovine serum albumin, yielding a total volume of 100 μl. Plates were grown overnight at 37° C. with shaking at 900 rpm on an Orbit P4 orbital shaker (Labnet; Edison, N.J.). […] The assay was performed in triplicate for each enzyme.

[3] = system: S. aureus 3425-1; test: MIC assay; assay type: cell-based, Staphylococcus aureus; settings: biological duplicates
Procedure: as §1

[4] = system: S. aureus SA113; test: MIC assay; assay type: cell-based, Staphylococcus aureus
Procedure: as §1

[5] = system: S. aureus 6445; test: MIC assay; assay type: cell-based, Staphylococcus aureus; settings: biological duplicates
[6] = Thermostability by differential scanning fluorimetry; assay type: physicochemical
Procedure: The relative thermostability of the lysostaphin variants was determined by differential scanning fluorimetry, as previously described (Niesen, et al. (2007) Nat. Protocols 2:2212-2221). Proteins and SYPRO Orange were diluted in PBS (final concentrations of 100 μg/ml and 5× in 20 μl reaction volume, respectively), and fluorescence was quantified at 1-degree increments from 25 to 94° C. using an Applied Biosystems ABI 7500 fast real-time PCR system. The reactions were performed using PCR Plates for Fast Thermocyclers (VWR; Radnor, Pa.). Fluorescence was quantified using the preset TAMRA parameters. Melting temperatures were determined by data analysis with the ‘DSF Analysis v3.0.xlsx’ EXCEL sheet and GraphPad Prism v.6.02 software.

[7] = system: pooled splenocytes; test: Transgenic DR4 murine immunogenicity study (memory response, splenocyte proliferation); assay type: in vivo; settings: wild-type LST primed mice, 100 μg rechallenge
Procedure: Twelve female 6-8 week old DR4 transgenic mice (Abb Knockout/Transgenic HLA-DR4; B6.129S2-H2-Ab1tm1GruTg(HLA-DRA/H2-Ea,HLA-DRB1*0401/H2-Eb)1Kito; Taconic Farms, Germantown, N.Y.) were divided into four groups of three each and immunized with 50 μl subcutaneous injections of wild-type LST using one of the following four schemes: (i) initial immunization with 100 μg enzyme in CFA, followed by 100 μg boosts in incomplete Freund's adjuvant (IFA) on days 14 and 28; (ii) initial immunization with 20 μg enzyme in CFA, followed by 20 μg boosts in IFA on days 14 and 28; (iii) initial immunization with 100 μg enzyme in PBS buffer, followed by 100 μg boosts in PBS buffer on days 7, 14, 21 and 28; (iv) initial immunization with 20 μg enzyme in PBS buffer, followed by 20 μg boosts in PBS buffer on days 7, 14, 21 and 28. Serum IgG antibody titers against wild-type LST were measured on days 13, 20, 27, 34, and 62. […] Mice were housed without further manipulation until week 23 of the study, at which time serum IgG antibody titers were again measured and mice were divided into two experimental arms having equivalent average antibody titers. Note that during the week 9 to week 23 recovery period, two mice (the lowest titer 100 μg no adjuvant and one of the high titer 100 μg adjuvant) began suffering hair loss, weight loss, and reduced mobility and were sacrificed as per the IACUC approved protocol. […]

[8] = system: pooled splenocytes; settings: mouse, in vivo
Text: HUMI mice were constructed by surgical transplantation of human bone marrow, liver, and thymus tissues into NOD/SCID/γc^−/− mice (Dartmouth Transgenics & Genetic Constructs Shared Resource) as described (Brainard, et al. (2009) J. Virol. 83:7305-21). All animals were humanized from the same human donor. Mice used experimentally had human lymphocytes as a minimum of 25% of their total peripheral blood leukocytes. Fourteen weeks post-engraftment, 12 female HUMI mice were divided into 3 groups of 4 each and immunized with a single 50 μl subcutaneous injection of 100 μg wild-type LST, 100 μg variant Flex 5, or 100 μg variant Flex 9 in complete Freund's adjuvant (CFA). Two weeks following the immunization, mice were sacrificed and splenocytes were harvested and pooled for each group. Pooled splenocytes (5×10^5/well) were plated in triplicate into 96-well plates with medium containing 5% fetal calf serum, 1-glutamine, antibiotics, and a final concentration of 10 μg/ml LST or variants (or 1% DMSO as a control). […]
In vivo immunogenicity was evaluated using NOD/SCID/γc^−/− mice that had been surgically humanized with human immune cells, liver tissue, and thymus tissue (HUMI mice). […] Cell proliferation was measured by tritiated thymidine uptake at 72 hours.

[9] = system: MRSA strain USA400; test: In vitro inhibitory activity (MIC); assay type: cell-based, Staphylococcus aureus
Text: F11, P12 and F13 were screened for in vitro inhibitory activity against MRSA strain USA400 (FIG. 7).

[10] = system: MRSA strain USA400; test: In vivo efficacy of F11, intraperitoneal MRSA challenge; set-up: species or system C57BL/6 mice; settings: 100 μg single bolus i.v. 1 h after 2×10^8 MRSA i.p.
Procedure: Mice were challenged with an intraperitoneal injection of 2×10^8 MRSA strain USA400, and 1 hour later the mice were treated with 100 μg wild-type LST, F11 or PBS. The percent survival is shown.
The in vivo efficacy of the F11 variant was further analyzed in C57BL/6 mice. Mice were challenged with an intraperitoneal injection of 2×10^8 MRSA strain USA400, and 1 hour later the mice were treated with 100 μg wild-type LST, F11 or PBS, administered as a single bolus intravenous injection. The survival rate for both protein treatments was 1/3. The 100 μg dosage was selected because wild-type LST is known to be only partially efficacious at this dose.

[11] = Immunogenicity of F13, antibody titers by ELISA (CFA); assay type: in vivo, DR4 HLA transgenic mice; settings: 100 μg s.c. in CFA, fourteen days
Procedure: (§2) The immunogenicity of the F13 variant was compared to wild-type LST in DR4 HLA transgenic mice, i.e., mice bearing partially humanized immune systems. 100 μg of wild-type LST or variant F13 were mixed with complete Freund's adjuvant and injected subcutaneously into DR4 mice. Fourteen days later, antibody titers were measured by ELISA. Variant F13 yielded more than 200-fold lower antibody titers compared to wild-type LST. To assess the impact of antibody titers on antibacterial efficacy, the mice were challenged with an intraperitoneal injection of 2×10^8 MRSA strain USA400, and 1 hour later the mice were treated with 500 μg wild-type LST, variant F13, or PBS, administered as a single bolus intravenous injection. Both mice receiving PBS sham treatments died as did both mice treated with wild-type LST. In contrast, both mice treated with variant F13 survived. Thus, the reduced immunogenicity of F13 conferred enhanced therapeutic efficacy in vivo.

[12] = system: MRSA strain USA400; test: Efficacy of F13 in immunized mice, MRSA challenge; assay type: in vivo, DR4 HLA transgenic mice; settings: 500 μg i.v. 1 h after 2×10^8 MRSA i.p.
Procedure: as §2

B1: Flex 5: lysostaphin variant K46H, I99Q, N121G, S122D (protein, UniProt P10547 248-493, looked up, variant K46H I99Q N121G S122D)
Lysostaphin: AATHEHSAQWLNNYKKGYGYGPYPLGINGGMHYGVDFFMNIGTPVHAISSGKIVEAGWSNYGGGNQIGLIENDGVHRQWYMHLSKYNVKVGDYVKAGQQIGWSGSTGYSTAPHLHFQRMVGDFSNSTAQDPMPFLKSAGYGKAGGTVTPTPNTGWKTNKYGTLYKSESASFTPNTDIITRTTGPFRSMPQSGVLKAGQTIHYDEVMKQDGHVWVGYTGNSGQRIYLPVRTWNKSTNTLGVLWGTIK
For B1, the “% Wild-Type Activity” value ([1]; 200 ng purified enzyme) was 61%, the “% WT Lytic Rate” value ([1]; biological duplicates) was 70 ± 30% and the “MIC Strain 3425-3” value [2] was 0.05 µg/mL. The “MIC Strain 3425-1” value [3] was 0.11 µg/mL, the MIC ([4]; S. aureus SA113, purified enzyme) was 0.1042 µg/mL and the “MIC Strain SA113” value ([4]; biological duplicates) was 0.02 µg/mL. For the same molecule, the “MIC Strain 6445” value [5] was 0.06 µg/mL, the Tm ([6]; SYPRO Orange, PBS) was 55.7 °C and the Tm ([6]; biological duplicates) was 55.8 °C. The “proliferation of pooled splenocytes” value [7] was “at or below background levels” and the “reduced proliferative response relative to wild-type group” value [8] was 50%.

B2: F11: variant combining cell wall binding domain mutations with Flex 9 (or derivative) catalytic domain (Table 22) (protein)
chain: AATHEHSAQWLGNYKKGYGYGPYPLGINGGMHYGVDFFMNEGTPVKAISSGKIVEAGWSNYGGGNQIGLIENDGVHRQWYMHMSKYNVKVGDYVEAGQQIGWSGSTGYSTAPHLHFQRMVGDFGNPTAQDPMPFLKSAGYGKAGGTVTPTPNTGWKTNKHGTLYKSESGSFTPNTDIITRTTGPFTSMPQSGVLKAGQTIHYDEVMKQDGHVWVGYTGNSGQRIYLPVRTWQKSTNTLGVLWGTIK
In the case of B2, the “MIC activity relative to wild-type LST” value [9] is reported as 12.5% and the survival rate [10] is reported as 1/3.

B3: F13: variant combining cell wall binding domain mutations with Flex 9 (or derivative) catalytic domain (Table 22) (protein)
chain: AATHEHSAQWLGNYKKGYGYGPYPLGINGGMHYGVDFFMNEGTPVKAISSGKIVEAGWSNYGGGNQIGLIENDGVHRQWYMHMSKYNVKVGDYVEAGQQIGWSGSTGYSTAPHLHFQRMVGDFGNPTAQDPMPFLKSAGYGKAGGTVTPTPNTGWKTNKHGTLYKNESGSFTPNTDIITRTTGPFTSMPQSGVLKAGQTIHYDEVMKQDGHVWVGYTGNSGQRIYLPVRTWQKSTDTLGVLWGTIK
With B3 the “MIC activity relative to wild-type LST” value [9] was 12.5%, the “retained original MIC activity after heating” value ([9]; 50° C. for 1 hour prior to assay) was 25% and the “fold lower antibody titers compared to wild-type LST” value [11] was “more than 200 fold”. For the same molecule, the survival [12] was “survived”.
